Test results taken from US20130216545A1, “Early Diagnosis and Novel Treatment of Cancer” (priority 2012, published 2013).

How the values were obtained:
Megi [1] = target: T1, Megi (Homo sapiens, UniProt O43909); assay: Immunofluorescent nuclear analyses of Megi translocation (Cy3 with DAPI overlay); assay type: cell-based; settings: cells grown in serum-free medium with 150 μM Reg peptide; FIG. 8c, 8f
T1 construct: Megi protein is expressed in human pancreatic cancer cells; endogenous in cells
T1 sequence (O43909 1-919): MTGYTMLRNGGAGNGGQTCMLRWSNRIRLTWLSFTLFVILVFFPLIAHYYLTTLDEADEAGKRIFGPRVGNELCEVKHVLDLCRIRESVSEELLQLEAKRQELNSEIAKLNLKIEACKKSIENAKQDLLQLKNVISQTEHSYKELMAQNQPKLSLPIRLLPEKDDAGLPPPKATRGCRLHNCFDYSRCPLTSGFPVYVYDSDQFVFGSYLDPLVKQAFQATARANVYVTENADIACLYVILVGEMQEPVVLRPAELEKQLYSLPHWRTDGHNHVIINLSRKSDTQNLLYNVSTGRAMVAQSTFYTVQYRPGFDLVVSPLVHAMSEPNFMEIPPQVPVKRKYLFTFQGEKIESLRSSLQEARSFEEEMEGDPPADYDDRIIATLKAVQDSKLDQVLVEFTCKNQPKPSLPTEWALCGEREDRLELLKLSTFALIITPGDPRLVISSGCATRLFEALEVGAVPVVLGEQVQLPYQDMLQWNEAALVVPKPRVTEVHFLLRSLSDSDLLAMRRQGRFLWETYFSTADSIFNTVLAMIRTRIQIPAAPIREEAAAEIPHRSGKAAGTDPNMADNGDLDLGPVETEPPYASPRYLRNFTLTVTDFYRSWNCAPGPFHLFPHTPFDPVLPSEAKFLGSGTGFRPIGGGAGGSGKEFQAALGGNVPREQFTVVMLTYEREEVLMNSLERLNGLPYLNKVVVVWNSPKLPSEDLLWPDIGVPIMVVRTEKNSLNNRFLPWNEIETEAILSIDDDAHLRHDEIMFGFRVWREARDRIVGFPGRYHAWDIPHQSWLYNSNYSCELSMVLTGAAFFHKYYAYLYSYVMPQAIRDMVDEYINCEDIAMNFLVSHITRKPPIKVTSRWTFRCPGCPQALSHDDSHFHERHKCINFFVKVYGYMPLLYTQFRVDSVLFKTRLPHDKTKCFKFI
Text: Immunofluorescent analyses of Megi are shown in the upper panels (FIG. 8a, FIG. 8b and FIG. 8c) indicated by the Cy3 immunofluorescent staining of Megi. […] The arrows in FIG. 8a and FIG. 8d delineate the cell borders, whereas the nuclei are shown in light grey contrast in FIG. 8d.
The middle images (FIG. 8b and FIG. 8e) are cells grown in SFM. Megi is localized in the cytoplasm, as indicated by cytoplasmic Cy3 staining. The arrows in FIG. 8b and FIG. 8e show the lack of staining in the position of the nuclei. […] In the lower image (FIG. 80, there is an overlap of Megi-Cy3 staining and nuclear DAPI staining that corroborates that there is nuclear localization of Megi indicated by the arrows in FIG. 8f. In the lower image (FIG. 8f) of cells grown in SFM and Reg peptide, the arrows indicate the position of the nuclei, which now stains for Megi. Scale bar=20 μm in all images.
Immunofluorescent analyses are shown in the upper, panels (FIG. 8a, FIG. 8b and FIG. 8c) indicated by the Cy3 immunofluorescent staining of Megi. […]

Megi [2] = target: T1, Megi; assay: Western blot analysis of Megi in cytosolic and nuclear fractions of adenocarcinoma cells; assay type: cell-based; settings: Reg peptide 167 nM; 30 minutes; vs cells not treated with Reg peptide; FIG. 7g vs 7e
Description: The Western blot analysis of cytosolic and nuclear fractions isolated at the indicated time points with Reg peptide accelerating time of Megi translocation from the cell surface membrane to nucleus. Adenocarcinoma cells were seeded in T75 flasks in Dulbecco's Modified Eagle media containing 10% fetal bovine serum. The cells were incubated at […], 5% CO2 for 24 hours and then treated with Reg peptide at the final concentration of 167 nM. This treatment was performed once a day for four days. On the fifth day the cells were broken to obtain the cell lysates. In these cell extracts the total protein levels were determined, and 50 micrograms of total protein, were used to perform the western blot analysis. The samples containing 50 micrograms of proteins were diluted in loading buffer and loaded into each well of the gel. For gels run under reducing conditions, buffer also contained 5% of the reducing agent beta-mercaptoethanol
Analyses were performed from cytoplasmic extracts were obtained in 10 mM HEPES (pH 8.0), 1 mM EDTA, 1.5 mM MgCl2, 10 mM KCl, 0.5 mM DTT, 200 mM sucrose and 0.5% Nonidet P-40. Nuclear extracts were obtained in 20 mM HEPES (pH 7.9), 0.75 mM MgCl2, 210 mM NaCl, 50 mM KCl, 1 mM EDTA, 10% glycerol, and 0.5 mM of dithiothreitol. […] Secondary signals were developed with chemiluminescence substrate and analyzed by autoradiography.

Megi [3] = target: T1, Megi; assay: Cy3 immunofluorescent staining of Megi in human pancreatic adenocarcinoma cells; assay type: cell-based; settings: 167 nM Reg peptide added to human pancreatic adenocarcinoma cells; FIG. 6b vs 6a
Description: To determine the presence of Megi via immunofluorescence, a continuous tumor-cell line from a human carcinoma of the exocrine pancreas were cultured in Dulbecco's Modified Eagle Medium containing 4.5 g/L glucose, 1:5 g/L sodium bicarbonate, 4 mM L-glutamine, and 10% fetal bovine serum. Cells were seeded at 50% confluence in standard growth medium. Twenty-four hours after seeding, cells were differentiated in serum free medium. Cells were mounted on cover slips and fixed in 4% paraformaldehyde and permeabilized with 0:2% Triton X-100. After being washed and blocked, cells were incubated with rabbit polyclonal anti-Megi antibody and a CY3-conjugated goat-anti-rabbit labeled fluorescent antibody. Antibodies were used at a 1:200 dilution. Coverslips were mounted and staining was analyzed on a Zeiss Axiovert 220M microscope powered by Axiovision 4.0 software with Z-stack acquisition, 3D-deconvolution, and 4D rendering modules.
Utilizing Cy3 immunofluorescent staining of Megi in human pancreatic adenocarcinoma cells in standard medium, there is immunofluorescent staining of Megi (FIG. 6a), which is well-defined at the cell borders indicating surface expression of Megi on the plasma membrane with visibly undetectable levels of Megi in the nucleus. […]

rabbits = assay: Enzyme ImmunoAssay titers of polyclonal antibodies raised in rabbits to a Megi peptide; assay type: in vivo, rabbit; settings: for 50% titer: test bleed 31 days after day 0 and day 21 boosts, KLH-conjugated peptide, unconjugated screening antigen
Description: Data sets were taken from the bleed after the day 0 and day 21 boosts. The animals were injected with a peptide of SEQ ID NO: 4 and were conjugated to keyhole limpet hemocyanin (KLH). The screening antigen is not conjugated to KLH so that the response solely to the peptide and not to KLH can be identified. The 50% titer is a dilution value where the signal is half-way between the peak and the baseline, so the higher the dilution value (titer), the greater the response to the antigen. The positive control is an internal control that was generated from ovalbumin antibodies in rabbit. At a dilution of 1:759,000, the absorbance fell within a range of 0.45 to 0.9. In the case of the response to SEQ ID NO: 4, there was a high response. The data shown in FIG. 9 from the prebleed sample obtained on Dec. 8, 2010 was <100 (negative) for both rabbits, CD 153 and CD 154.

Megi receptor = settings: rat hippocampus; effect abolished by downregulating Megi by shRNA; cited from earlier work

Molecule: Reg peptide: common Reg peptide sequence (SEQ ID NO: 10) selected from Reg1α, Reg1β, Reg3α and RegIV, synthesized by Bachem (IGLHDPTQGTEPNG)
- subcellular localization of Megi (Megi [1]): translocation of Megi into the nucleus
- nuclear levels of Megi (Megi nuclear translocation) (Megi [2]): higher nuclear levels of Megi
- cellular staining of Megi (Megi [3]): greater expression of Megi inside of the cell

Molecule: SEQ ID NO: 4: 20 amino acid Megi peptide (amino acids 17-36) used as immunogen to raise polyclonal antibodies in rabbits (CKKSIENAKQDLLQLKNVIS)
- 50% titer (rabbits; rabbit CD 153): 36,000
- 50% titer (rabbits; rabbit CD 154): 125,000
- response to the antigen (rabbits; rabbits immunised with KLH-conjugated peptide): high response

B1: recombinant Reg1α: recombinant regenerating islet-derived 1 alpha protein used by Van Ba on rat hippocampus (protein)
chain: QEAQTELPQARISCPEGTNAYRSYCYYFNEDRETWVDADLYCQNMNSGNLVSVLTQAEGAFVASLIKESGTDDFNVWIGLHDPKKNRRWHWSSGSLVSYKSWGIGAPSSVNPGYCVSLTSSTGFQKWKDVPCEDKFSFVCKFKN
- neurite outgrowth (Megi receptor): increased neurite outgrowth
